Laboratory results: patent US20060292657A1, “Phex substrates and methods using same” (priority 2003, published 2006)

Columns and labels:
Experiment in all cases: Kinetic parameters for hydrolysis of internally quenched fluorogenic peptides by secPHEX
Assay type in all cases: biochemical, human
Details in all cases: other: 37° C., 10 mM Bis-Tris buffer pH 5.5, 150 mM NaCl
[1] = substrate: N=C(N)NCCC[C@H](NC(=O)c1ccccc1N)C(=O)N[C@@H](CCCNC(=N)N)C(=O)N[C@@H](CC(=O)O)C(=O)N[C@@H](CC(=O)O)C(=O)N[C@@H](CO)C(=O)N[C@@H](CO)C(=O)N[C@@H](CCC(=O)O)C(=O)N[C@@H](CCC(N)=O)C(=O)NCCNc1ccc([N+](=O)[O-])cc1[N+](=O)[O-]
In short: (§1)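 Purified human recombinant secPHEX hydrolysing internally quenched fluorogenic peptides at 37° C in 10 mM Bis-Tris pH 5.5, 150 mM NaCl; fluorescence (ex 320, em 420 nm) followed continuously, <5% substrate hydrolysed, inner-filter corrected. Km and kcat by non-linear regression; kcat/Km under [S]<<Km where applicable.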

[2] = substrate: CC(C)C[C@H](NC(=O)[C@H](Cc1c[nH]cn1)NC(=O)[C@H](CC(=O)O)NC(=O)c1ccccc1N)C(=O)N[C@@H](CO)C(=O)N[C@@H](CC(=O)O)C(=O)N[C@H](C(=O)N[C@@H](CO)C(=O)N[C@H](C(=O)N[C@@H](CCC(N)=O)C(=O)NCCNc1ccc([N+](=O)[O-])cc1[N+](=O)[O-])[C@@H](C)O)[C@@H](C)O
In short: as §1

[3] = substrate: CSCC[C@H](NC(=O)[C@H](CC(C)C)NC(=O)c1ccccc1N)C(=O)N[C@@H](CCSC)C(=O)N[C@@H](CC(=O)O)C(=O)N[C@@H](Cc1ccccc1)C(=O)N[C@@H](CCCNC(=N)N)C(=O)NCC(=O)N[C@@H](CCC(N)=O)C(=O)NCCNc1ccc([N+](=O)[O-])cc1[N+](=O)[O-]
In short: as §1

[4] = substrate: NC(=O)[C@H](CCCCNc1ccc([N+](=O)[O-])cc1[N+](=O)[O-])NC(=O)[C@H](Cc1ccc(O)cc1)NC(=O)[C@H](CC(=O)O)NC(=O)[C@H](CO)NC(=O)[C@H](Cc1ccccc1)NC(=O)CNC(=O)c1ccccc1N
In short: as §1

[5] = substrate: NC(=O)CC[C@H](NC(=O)[C@H](CO)NC(=O)CNC(=O)[C@H](CO)NC(=O)[C@H](CC(=O)O)NC(=O)[C@H](CO)NC(=O)[C@H](CO)NC(=O)c1ccccc1N)C(=O)NCCNc1ccc([N+](=O)[O-])cc1[N+](=O)[O-]
In short: as §1

B1: human recombinant secPHEX (Homo sapiens) (protein)
chain: SLQAKQEYCLKPECIEAAAAILSKVNLSVDPCDNFFRFACDGWISNNPIPEDMPSYGVYPWLRHNVDLKLKELLEKSISRRRDTEAIQKAKILYSSCMNEKAIEKADAKPLLHILRHSPFRWPVLESNIGPEGVWSERKFSLLQTLATFRGQYSNSVFIRLYVSPDDKASNEHILKLDQATLSLAVREDYLDNSTEAKSYRDALYKFMVDTAVLLGANSSRAEHDMKSVLRLEIKIAEIMIPHENRTSEAMYNKMNISELSAMIPQFDWLGYIKKVIDTRLYPHLKDISPSENVVVRVPQYFKDLFRILGSERKKTIANYLVWRMVYSRIPNLSRRFQYRWLEFSRVIQGTTTLLPQWDKCVNFIESALPYVVGKMFVDVYFQEDKKEMMEELVEGVRWAFIDMLEKENEWMDAGTKRKAKEKARAVLAKVGYPEFIMNDTHVNEDLKAIKFSEADYFGNVLQTRKYLAQSDFFWLRKAVPKTEWFTNPTTVNAFYSASTNQIRFPAGELQKPFFWGTEYPRSLSYGAIGVIVGHEFTHGFDNNGRKYDKNGNLDPWWSTESEEKFKEKTKCMINQYSNYYWKKAGLNVKGKRTLGENIADNGGLREAFRAYRKWINDRRQGLEEPLLPGITFTNNQLFFLSYAHVRCNSYRPEAAREQVQIGAHSPPQFRVNGAISNFEEFQKAFNCPPNSTMNRGMDSCRLW
notes: pure soluble form of PHEX (secPHEX); made in house
Km [1]: 5.3 µM | kcat [1]: 0.5 s⁻¹ | kcat/Km [1]: 94300 M⁻¹ s⁻¹ | Km [2]: 1.3 µM | kcat [2]: 0.1 s⁻¹ | kcat/Km [2]: 77000 M⁻¹ s⁻¹ | Km [3]: 17.0 µM | kcat [3]: 0.8 s⁻¹ | kcat/Km [3]: 45000 M⁻¹ s⁻¹ | Km [4]: 53.2 µM | kcat [4]: 1.3 s⁻¹ | kcat/Km [4]: 24400 M⁻¹ s⁻¹ | Km [5]: 31.6 µM | kcat [5]: 0.2 s⁻¹ | kcat/Km [5]: 7100 M⁻¹ s⁻¹
